Measured values published in US20250051426A1 (IGALPHAN, published 2025).
Numbering of substitutions follows the chain as printed.

B1: RS_H007_L001 (antibody, V domains shown)
VH: EVQLQQSGSELVKSGASVKLSCTVSGFNFTNYYIHWVRQRTEQGLEWIGRIDPENNQTTYAPKFQGKATMTADTSSNTAYLQLTSLTSEDTAVYYCARSTVLDYWGHGTTLTVSS
VL: DVLMTQSPASLSVSLGDRATISCRASQSIVHTNGNTYLEWYLQKPGQSPKLLIYKVSNRFSGVPDRFSGSGSGTDFILKISRVEAEDLGVYYCFQGSHVPPTFGGGTKLEVK
notes: Mainly dimers
B2: RS_H000_L000GR Fab (Fab, V domains shown)
VH: B1 VH with N31D, N56D, Q57E
VL: B1 VL with S7T, A9L, S12P, R18Q, T20S
notes: Fab made by papain digestion of the W27 recombinant IgG expressed in CHO cells; also called IgG W27 Fab
B3: W27G2 antibody (antibody, V domains shown)
VH: B1 VH with N31D, N56D, Q57E
VL: DVLMTQTPLSLPVSLGDQASISCRASQSIVHTNGNTYLEWYLQKPGQSPKLLIYKVSNRFSGVPDRFSGSGSGTDFILKISRVEAEDLGVYYCFQGSHVPPTFGGGTKLEVKR
notes: Mouse IgA produced by a hybridoma; W27G2CHT is the crude hydroxyapatite-purified preparation; W27G2GF is the multimer fraction after gel filtration; also called hybridoma-derived W27G2 antibody; W27G2CHT
B4: W27 antibody (antibody, V domains shown)
VH: B1 VH with N31D, N56D, Q57E
VL: B1 VL with S7T, A9L, S12P, R18Q, T20S
notes: IgA; also called W27IgA antibody
B5: RS_H007_L005 (antibody, V domains shown)
VH: B1 VH
VL: B1 VL with A25S
notes: Mainly dimers
B6: RS_H000_L001 (antibody, V domains shown)
VH: B1 VH with N31D, N56D, Q57E
VL: B1 VL
notes: Mainly dimers by non-reduced SDS-PAGE
B7: RS_H007_L002 (antibody, V domains shown)
VH: B1 VH
VL: B1 VL with A19V
notes: Mainly dimers
B8: RS_H007_L004 (antibody, V domains shown)
VH: B1 VH
VL: B1 VL with L11M, A25S
notes: Mainly dimers
B9: RS_H000_L005 (antibody, V domains shown)
VH: B1 VH with N31D, N56D, Q57E
VL: B1 VL with A25S
notes: Mainly dimers

Assays:
[1] = target: T1, E. coli wild-type SHMT (GST fusion protein) (E. coli, UniProt P0A825 1-417); experiment: ELISA on immobilized GST fusion protein
T1 construct: Overexpressed in E. coli as a GST fusion, purified and immobilized on the ELISA plate at 2 ug/ml; not shown: Glutathione-S-transferase (GST) fusion partner
T1 sequence: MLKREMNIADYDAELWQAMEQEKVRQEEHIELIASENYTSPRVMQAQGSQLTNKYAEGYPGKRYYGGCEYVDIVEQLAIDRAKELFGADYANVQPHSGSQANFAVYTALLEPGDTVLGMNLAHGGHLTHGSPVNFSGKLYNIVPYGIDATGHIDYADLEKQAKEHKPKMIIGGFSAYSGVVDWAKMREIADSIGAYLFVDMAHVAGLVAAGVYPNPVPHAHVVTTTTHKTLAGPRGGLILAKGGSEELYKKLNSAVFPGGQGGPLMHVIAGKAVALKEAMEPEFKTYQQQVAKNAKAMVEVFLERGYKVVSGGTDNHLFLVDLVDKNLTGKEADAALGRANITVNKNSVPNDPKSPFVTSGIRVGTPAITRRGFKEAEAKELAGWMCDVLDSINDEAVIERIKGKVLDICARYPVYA

E. coli SHMT (25-45) = target: T2, E. coli SHMT (25-45) (E. coli); experiment: X-ray crystal structure of the Fab-peptide complex
T2 construct: Expressed as a GST fusion; GST was cleaved off and removed before crystallization
T2 peptide: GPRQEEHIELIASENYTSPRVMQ

[2] = target: T3, C. difficile iPGM (486-509) (C. difficile); experiment: X-ray crystal structure of the Fab-peptide complex
T3 construct: Expressed as a GST fusion; GST was cleaved off and removed before crystallization
T3 peptide: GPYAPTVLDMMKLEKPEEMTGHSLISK

E. coli iPGM = target: T4, E. coli iPGM (E. coli, UniProt P37689 1-514, limits assumed); experiment: Western blot
T4 sequence (looked up): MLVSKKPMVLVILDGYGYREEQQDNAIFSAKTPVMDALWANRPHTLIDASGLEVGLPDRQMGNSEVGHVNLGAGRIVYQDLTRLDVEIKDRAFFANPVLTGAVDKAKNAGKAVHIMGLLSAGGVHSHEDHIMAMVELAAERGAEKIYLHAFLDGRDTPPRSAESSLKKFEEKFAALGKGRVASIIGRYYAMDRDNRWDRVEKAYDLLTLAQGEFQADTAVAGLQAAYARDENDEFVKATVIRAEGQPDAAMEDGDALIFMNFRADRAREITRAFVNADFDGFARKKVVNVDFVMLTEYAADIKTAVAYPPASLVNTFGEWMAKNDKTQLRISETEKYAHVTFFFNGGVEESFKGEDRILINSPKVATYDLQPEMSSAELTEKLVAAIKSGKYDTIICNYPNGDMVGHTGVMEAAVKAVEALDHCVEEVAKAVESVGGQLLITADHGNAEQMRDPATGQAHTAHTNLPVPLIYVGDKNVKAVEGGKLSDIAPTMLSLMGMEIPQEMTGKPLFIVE

| Binder | binding result [1] | also measured |
| --- | --- | --- |
| B1 | binds | – |
| B2 | – | binding result (E. coli SHMT (25-45)): binds; binding result [2]: binds |
| B3 | binds | – |
| B4 | – | binding result (E. coli iPGM): no binding |
| B5 | binds | – |
| B6 | binds | – |
| B7 | binds | – |
| B8 | binds | – |
| B9 | binds | – |
